Details: Bacillus amyloliquefaciens; pH 6.3; 25 °C; Urea; Fluorescence; MES 50 mM; reversible: yes; whole UniProt chain shown

B1: Ribonuclease wild type, P00648 (protein)
chain: MMKMEGIALKKRLSWISVCLLVLVSAAGMLFSTAAKTETSSHKAHTEAQVINTFDGVADYLQTYHKLPDNYITKSEAQALGWVASKGNLADVAPGKSIGGDIFSNREGKLPGKSGRTWREADINYTSGFRNSDRILYSSDWLIYKTTDHYQTFTKIR
For B1, which unfolding free energy is on record?
The unfolding free energy was 8.83 kcal/mol.
